Paper PMC4373355

Key:
[1] = target: T1, Human amylin (1-37) (human); assay: cross-linking; conditions: remark: other sources report otherwise
T1 chain: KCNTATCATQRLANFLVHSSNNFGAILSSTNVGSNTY

[2] = target: T1, Human amylin (1-37) (human); assay: cross-linking; conditions: remark: other sources report otherwise

stoichiometry N [1]: 6
stoichiometry N [2]: < 6
Binder: KCNTATCATQRLANFLVHSSNNFGAILSSTNVGSNTY [Human amylin (1-37)]
